Assay results: US12097241B2, “Methods of treating kidney failure, and/or improving or stablizing renal function using modified relaxin polypeptides” (BRISTOL-MYERS SQUIBB COMPANY, priority 2017, dated 2024)
Like-named read-outs stand apart in the source and are kept apart here.

What was measured:
human RXFP1 receptor = molecular target: T1, human RXFP1 receptor (Homo sapiens, UniProt Q9HBX9); assay: Intracellular cAMP accumulation assay; type: cell-based
T1 construct: expressed in transfected cells
T1 sequence (Q9HBX9 1-757): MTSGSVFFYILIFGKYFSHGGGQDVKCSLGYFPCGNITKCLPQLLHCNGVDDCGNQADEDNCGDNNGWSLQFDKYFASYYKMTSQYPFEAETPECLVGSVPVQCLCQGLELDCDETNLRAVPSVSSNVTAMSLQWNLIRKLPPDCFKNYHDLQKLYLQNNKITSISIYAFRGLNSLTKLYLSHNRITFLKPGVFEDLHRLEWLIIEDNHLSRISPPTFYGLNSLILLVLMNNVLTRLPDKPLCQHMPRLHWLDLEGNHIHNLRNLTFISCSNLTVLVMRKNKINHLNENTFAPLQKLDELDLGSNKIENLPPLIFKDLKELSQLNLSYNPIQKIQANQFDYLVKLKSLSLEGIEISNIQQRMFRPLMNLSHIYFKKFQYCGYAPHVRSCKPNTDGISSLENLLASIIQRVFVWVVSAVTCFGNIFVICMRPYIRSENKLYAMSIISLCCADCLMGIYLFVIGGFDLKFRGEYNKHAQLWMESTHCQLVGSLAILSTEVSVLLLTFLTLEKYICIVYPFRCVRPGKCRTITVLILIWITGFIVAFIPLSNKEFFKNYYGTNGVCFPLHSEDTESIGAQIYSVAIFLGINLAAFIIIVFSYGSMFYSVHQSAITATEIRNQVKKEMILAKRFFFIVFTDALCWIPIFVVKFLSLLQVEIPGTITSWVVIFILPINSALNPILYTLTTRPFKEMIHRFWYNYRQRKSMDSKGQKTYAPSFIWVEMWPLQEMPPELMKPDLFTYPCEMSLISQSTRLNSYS
Description: The intracellular cAMP accumulation assay described herein was used to assess relaxin bioactivity and potency.
CHO-K1 cells (ATCC; Cat. #CRL-9618) stably expressing the human RXFP1 receptor (locus number LOC59350) (10,000/well) were plated into 96-well plates and cultured overnight at 37° C. and 5% CO2. On the following day, the medium was removed from the wells and the cells were stimulated with the addition of ligand (relaxin polypeptide) in 50 uL buffer (1×HBSS, 5 mM HEPES (7.2), 0.5 mM IBMX, 0.1% BSA); incubation was for 10 min at 37° C. Unstimulated cells were utilized as reference controls. Reactions were terminated and cellular cAMP levels were measured using the Homogeneous Time Resolved Fluorescence (HTRF) Dynamic 2 cAMP kit (CisBio, #62AM4PEC) according to the manufacturer's protocol. Plates were analyzed using an EnVision 2104 Multilablel Reader (PerkinElmer). Signal was expressed in terms of the ratio of fluorescence intensity @ 665 nm/fluorescence intensity @620 nm×10,000. The concentration of cAMP in the sample was determined by comparison with standard curves generated from known concentrations of cAMP. The potency of each relaxin was determined using a ten-point concentration response curves which was performed in duplicate. The data were analyzed using Microsoft Excel, Version 2013 Xlfit software. Effective concentration 50 (EC50) values, the point at which the response was one-half maximal, were calculated using a four-parameter logistic equation that allowed for a variable-slope (Table 3).

[1] = In vivo pharmacokinetic (PK) studies in rats; parameters: species or system Sprague-Dawley rats; settings: rat, male Sprague-Dawley rats, single SC dose 1.0 mg/kg, serum ELISA; for AUC(0-inf): read-out: Rat PK AUC Total; for level at time molar at 24 h: read-out: Rat PK C24
How it was run: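 Male Sprague-Dawley rats (n=3) given a single 1 mg/kg IV or SC dose of relaxin constructs in 20 mM histidine, 750 mM NaCl, pH 6.0; jugular serum sampled to 72 h. Serum relaxin by ELISA; Cmax, AUCinf, C24 and half-life from non-compartmental analysis of individual profiles.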

| SMILES | EC50 (human RXFP1 receptor; CHO-K1 cells stably expressing human RXFP1, 10 min at 37° C., HTRF cAMP, average, read-out: hRXFP1/CHO-K1 cAMP EC50 (nM, avg)) [nM] | AUC(0-inf) [1] [µM·h] | level at time molar at 24 h [1] [nM] | EC50 (human RXFP1 receptor) [nM] |
| --- | --- | --- | --- | --- |
| CC[C@H](C)[C@@H]1NC(=O)[C@H](C)NC(=O)[C@H]([C@@H](C)CC)NC(=O)[C@H](CCC(N)=O)NC(=O)[C@H](C)NC(=O)[C@H](CCCNC(=N)N)NC(=O)[C@H](C(C)C)NC(=O)[C@H](CC(C)C)NC(=O)[C@H](CCC(=O)O)NC(=O)[C@H](CCCNC(=N)N)NC(=O)CNC(=O)[C@@H](NC(=O)[C@H](CC(C)C)NC(=O)[C@H](CCCCN)NC(=O)[C@@H](NC(=O)[C@@H](NC(=O)[C@H](CCC(=O)O)NC(=O)[C@H](CCC(=O)O)NC(=O)[C@H](CCSC)NC(=O)[C@H](Cc2c[nH]c3ccccc23)NC(=O)[C@H](CO)NC(=O)[C@H](C)N)C(C)C)[C@@H](C)CC)CSSC[C@@H]2NC(=O)[C@@H](NC(=O)[C@H](CCCCN)NC(=O)[C@H](CC(N)=O)NC(=O)[C@H](C)NC(=O)[C@H](CC(C)C)NC(=O)[C@H](C)NC(=O)[C@H](CO)NC(=O)[C@H](Cc3ccc(O)cc3)NC(=O)[C@H](CC(C)C)NC(=O)[C@@H](N)Cc3ccc(/C(C)=N/OCCNC(=O)CNC(=O)[C@H](CO)NC(=O)[C@H](Cc4c[nH]cn4)NC(=O)[C@H](Cc4c[nH]cn4)NC(=O)[C@H](Cc4c[nH]cn4)NC(=O)[C@H](Cc4c[nH]cn4)NC(=O)[C@H](Cc4c[nH]cn4)NC(=O)CNC(=O)[C@H](CO)NC(=O)CC[C@H](NC(=O)CCCCCCCCCCCCC(=O)O)C(=O)O)cc3)CSSC[C@H](NC(=O)CNC(=O)[C@H](C(C)C)NC(=O)[C@H](Cc3c[nH]cn3)NC2=O)C(=O)N[C@@H]([C@@H](C)O)C(=O)N[C@@H](CCCCN)C(=O)N[C@@H](CCCNC(=N)N)C(=O)N[C@@H](CO)C(=O)N[C@@H](CC(C)C)C(=O)N[C@@H](C)C(=O)N[C@@H](CCCNC(=N)N)C(=O)N[C@@H](Cc2ccccc2)C(=O)N[C@H](C(=O)O)CSSC[C@@H](C(=O)NCC(=O)N[C@@H](CCSC)C(=O)N[C@@H](CO)C(=O)N[C@H](C(=O)N[C@@H](Cc2c[nH]c3ccccc23)C(=O)N[C@@H](CO)C(=O)O)[C@@H](C)O)NC1=O [AQ1-GSHHHHHGS-Glu^γ-C13-COOH] | 0.28 | 0.582 | 0.46 | – |
| CC[C@H](C)[C@@H]1NC(=O)[C@H](C)NC(=O)[C@H]([C@@H](C)CC)NC(=O)[C@H](CCC(N)=O)NC(=O)[C@H](C)NC(=O)[C@H](CCCNC(=N)N)NC(=O)[C@H](C(C)C)NC(=O)[C@H](CC(C)C)NC(=O)[C@H](CCC(=O)O)NC(=O)[C@H](CCCNC(=N)N)NC(=O)CNC(=O)[C@@H](NC(=O)[C@H](CC(C)C)NC(=O)[C@H](CCCCN)NC(=O)[C@@H](NC(=O)[C@@H](NC(=O)[C@H](CCC(=O)O)NC(=O)[C@H](CCC(=O)O)NC(=O)[C@H](CCSC)NC(=O)[C@H](Cc2c[nH]c3ccccc23)NC(=O)[C@H](CO)NC(=O)[C@H](C)N)C(C)C)[C@@H](C)CC)CSSC[C@@H]2NC(=O)[C@@H](NC(=O)[C@H](CCCCN)NC(=O)[C@H](CC(N)=O)NC(=O)[C@H](C)NC(=O)[C@H](CC(C)C)NC(=O)[C@H](C)NC(=O)[C@H](CO)NC(=O)[C@H](Cc3ccc(O)cc3)NC(=O)[C@H](CC(C)C)NC(=O)[C@@H](N)Cc3ccc(C(C)=NOCCNC(=O)[C@H](CCCCN)NC(=O)[C@H](CCCCN)NC(=O)[C@H](CO)NC(=O)CNC(=O)CNC(=O)[C@H](CO)NC(=O)CNC(=O)CNC(=O)[C@H](CCC(=O)O)NC(=O)[C@H](CCC(=O)O)NC(=O)CC[C@H](NC(=O)CCCCCCCCCCCCC(=O)O)C(=O)O)cc3)CSSC[C@H](NC(=O)CNC(=O)[C@H](C(C)C)NC(=O)[C@H](Cc3c[nH]cn3)NC2=O)C(=O)N[C@@H]([C@@H](C)O)C(=O)N[C@@H](CCCCN)C(=O)N[C@@H](CCCNC(=N)N)C(=O)N[C@@H](CO)C(=O)N[C@@H](CC(C)C)C(=O)N[C@@H](C)C(=O)N[C@@H](CCCNC(=N)N)C(=O)N[C@@H](Cc2ccccc2)C(=O)N[C@H](C(=O)O)CSSC[C@@H](C(=O)NCC(=O)N[C@@H](CCSC)C(=O)N[C@@H](CO)C(=O)N[C@H](C(=O)N[C@@H](Cc2c[nH]c3ccccc23)C(=O)N[C@@H](CO)C(=O)O)[C@@H](C)O)NC1=O [AQ1-KKSGGSGGEE-Glu^γ-C13-COOH] | – | 0.676 | 0.09 | 0.16 |
| CC[C@H](C)[C@@H]1NC(=O)[C@H](C)NC(=O)[C@H]([C@@H](C)CC)NC(=O)[C@H](CCC(N)=O)NC(=O)[C@H](C)NC(=O)[C@H](CCCNC(=N)N)NC(=O)[C@H](C(C)C)NC(=O)[C@H](CC(C)C)NC(=O)[C@H](CCC(=O)O)NC(=O)[C@H](CCCNC(=N)N)NC(=O)CNC(=O)[C@@H](NC(=O)[C@H](CC(C)C)NC(=O)[C@H](CCCCN)NC(=O)[C@@H](NC(=O)[C@@H](NC(=O)[C@H](CCC(=O)O)NC(=O)[C@H](CCC(=O)O)NC(=O)[C@H](CCSC)NC(=O)[C@H](Cc2c[nH]c3ccccc23)NC(=O)[C@H](CO)NC(=O)[C@H](C)N)C(C)C)[C@@H](C)CC)CSSC[C@@H]2NC(=O)[C@@H](NC(=O)[C@H](CCCCN)NC(=O)[C@H](CC(N)=O)NC(=O)[C@H](C)NC(=O)[C@H](CC(C)C)NC(=O)[C@H](C)NC(=O)[C@H](CO)NC(=O)[C@H](Cc3ccc(O)cc3)NC(=O)[C@H](CC(C)C)NC(=O)[C@@H](N)Cc3ccc(C(C)=NOCCNC(=O)[C@H](CCCCN)NC(=O)[C@H](CCCCN)NC(=O)[C@H](CCCCN)NC(=O)[C@H](CO)NC(=O)CNC(=O)CNC(=O)[C@H](CO)NC(=O)CNC(=O)CNC(=O)CC[C@H](NC(=O)CCCCCCCCCCCCC(=O)O)C(=O)O)cc3)CSSC[C@H](NC(=O)CNC(=O)[C@H](C(C)C)NC(=O)[C@H](Cc3c[nH]cn3)NC2=O)C(=O)N[C@@H]([C@@H](C)O)C(=O)N[C@@H](CCCCN)C(=O)N[C@@H](CCCNC(=N)N)C(=O)N[C@@H](CO)C(=O)N[C@@H](CC(C)C)C(=O)N[C@@H](C)C(=O)N[C@@H](CCCNC(=N)N)C(=O)N[C@@H](Cc2ccccc2)C(=O)N[C@H](C(=O)O)CSSC[C@@H](C(=O)NCC(=O)N[C@@H](CCSC)C(=O)N[C@@H](CO)C(=O)N[C@H](C(=O)N[C@@H](Cc2c[nH]c3ccccc23)C(=O)N[C@@H](CO)C(=O)O)[C@@H](C)O)NC1=O [AQ1-KKKSGGSGG-Glu^γ-C13-COOH] | – | 0.264 | 0.21 | 0.14 |
